# “Also recorded” adds a separate entry of the source. *1 amine or outer side, *2 acyl side, *3 side chain or, on linkers, in order; H or OH if unused. Where a SMILES comes first, the peptide text is derived from it. [ ]: non-standard residue; d: D form. The star is where a group is joined. X2 = COc1cc(CN([C@@H](Cc2ccc(OP(=O)(O)O)cc2)C(=O)[*:2])[*:1])c([N+](=O)[O-])cc1OC; Gly(N-Dmnb) = COc1cc(CNCC(=O)O)c([N+](=O)[O-])cc1OC; X1 = CN(C)c1ccc(-c2cnc(-c3ccc(S(=O)(=O)*)cc3)o2)cc1; pY = N[C@@H](Cc1ccc(OP(=O)(O)O)cc1)C(=O)O; coumarin = not defined here; Dab = NCC[C@H](N)C(=O)O
# Tests used:
# [1] = system: Ac-Gly-Gly-Gly-N(DMNB)Phe-coumarin (10)
# [2] = system: Ac-Gly-Gly-Gly-Phe-coumarin (9)
# Lck SH2 domain [3] = molecular target: T1, Lck SH2 domain (Homo sapiens, UniProt P06239); test: Photolysis of caged peptide 4, read out by displacement of sensor A from the Lck SH2 domain; type: binding
# T1 construct: made in house
# Protocol: Experiments were conducted using 3 μM peptide A, 20 μM DTT, 5 μM GST-Lck-SH2 (in 10% glycerol), peptide 4 (32 μM) in 33.3 mM Tris buffer (pH 7.5) and a total assay volume 150 μL. The fluorescence of the solution was monitored on a Photon Technology QM-1 spectrofluorimeter at 30° C. at λex=395 nm and λem=535 nm. Caged peptide (4) was irradiated using an Oriel Mercury Arc Lamp (Model 69907) equipped with a 360 nm colored glass filter (300-400 nm band pass) and an IR filter for various time periods (0-30 min).
# An aliquot from each irradiation time period was added to the assay solution. A decrease in fluorescence intensity is indicative of displacement of the SH2 domain sensor A from the SH2 domain by uncaged peptide (6) (see FIGS. 7 and 8). An analogous set of experiments was performed with peptide 5. The formation of uncaged peptide 6 from caged peptides 4 and 5 was confirmed by analytical HPLC (comparison with the retention time of peptide 6 prepared by solid phase peptide synthesis) and by mass spectrometry.
# [4] = molecular target: T2, cAMP-dependent protein kinase (PKA) catalytic subunit (Homo sapiens, UniProt P17612); test: PKA [γ-33P]ATP radioactive phosphorylation assay; type: biochemical
# T2 construct: made in house
# Protocol: PKA assays were performed in triplicate. 20 μL of a 30 μM solution of 12, which had been photolyzed for different time periods (5, 10, 15, 20, 25, 30 min), was added to each well of 96 multi-well assay plate containing 20 μL assay buffer [100 mM MOPS, 150 mM KCl, 12.5 mM MgCl2 and 150 μM cold ATP supplemented with 70-163 μCi/well [γ^−33P]ATP for radioactive detection]. 10 μL enzyme diluted buffer containing 100 mM MOPS (pH 7.1), 0.125 mg/mL bovine serum albumin, and 8 nM PKA catalytic subunit were added to initiate the reaction. Total reaction volume was 50 μL. After a 12-min incubation time at 30° C., 100 μL of 6% phosphoric acid was added to each well to stop the reaction (total volume: 150 μL). Following an additional 5 min incubation period at ambient temperature, 75 μL from each reaction well was transferred into each well of a Unifilter (P81 cellulose phosphate paper) assay plate. Each well was washed four times with 0.1% phosphoric acid in water. Scintillation solution was added to each well and ^33P-incorporation measured by scintillation counting with a MicroBeta™ TriLux & MicroBeta JET (Perkin Elmer). The formation of the photouncaged peptide was confirmed by ESI mass spectrometry.
# Assays were performed as described above, except that the enzymatic reaction was stopped at different time points (2, 4, 6, 8, 10, 12, 14 min) by adding 6% phosphoric acid.
# α-chymotrypsin = molecular target: T3, α-chymotrypsin (Bos taurus, UniProt P00766); test: Chymotrypsin continuous fluorescence substrate assay; type: biochemical
# T3 construct: purchased Fisher or Aldrich (general materials statement only)
# Protocol: The peptide 9 stock solution contained 5% DMSO and the assay solution contained less than 1% DMSO. The reaction was monitored on a Photon Technology QM-1 spectrofluorimeter at 30° C. using a λex=380 nm and a λem=460 nm.
# Assays were conducted using 25 μM light exposed caged peptide 10 in 50 mM Tris buffer (pH 8.0), and 100 mM NaCl, 5 mM CaCl2, and 0.01% Tween-20 to which α-chymotrypsin was added to initiate the reaction. The fluorescence of the solution was monitored on a Photon Technology QM-1 spectrofluorimeter at 30° C. at λex=380 nm and λem=460 nm. Caged peptide 10 was irradiated using an Oriel Mercury Arc Lamp (Model 69907) equipped with a 360 nm colored glass filter (300-400 nm band pass) and an IR filter for various time periods (0, 5, 10, 15, and 20 min).
# [5] = system: H2N-Leu-Arg-Arg-Ala-N(DMNB)Ser-Leu-Gly-NH2 (12)
# [6] = system: H2N-Leu-Arg-Arg-Ala-Ser-Leu-Gly-NH2 (11)
# GST-Lck-SH2 [7] = molecular target: GST-Lck-SH2 (UniProt P06239); test: fluorescence of dapoxyl peptide A with Lck SH2 domain
# GST-Lck-SH2 [8] = molecular target: GST-Lck-SH2 (UniProt P06239); test: fluorescence, 3 µM peptide A with 5 µM GST-Lck-SH2 and 32 µM unphotolysed peptide 4, t=0 min
# Lck SH2 domain [9] = molecular target: T1, Lck SH2 domain; test: Competition assay with dapoxyl-labeled sensor peptide A for Kd at the Lck SH2 domain; type: binding
# Protocol: By contrast, the difference in affinity between 5 (43±10 μM) and 6 is somewhat more modest. The caged derivative 4 is converted to the high affinity form 6 upon photolysis. Longer photolysis times generate larger yields of the active peptide 6 (see “Experimental procedures” section below). The latter provides a straightforward means to deliver desired quantities of the active species.
# The competition assay schematically illustrated in FIG. 7 was employed to determine Kds for peptides 4, 5, and 6. Experiments were conducted using 3 μM peptide A, 20 μM DTT, 5 μM GST-Lck-SH2 (in 10% glycerol), and 33.3 mM of Tris buffer (pH 7.5) in a total assay volume of 150 μL. The fluorescence of the solution was monitored on a Photon Technology QM-1 spectrofluorimeter at 30° C. at λex=395 nm and λem=535 nm. The fluorescence of the peptide A solution was measured in the presence of variable concentrations of peptides 4, 5, or 6. Control assays in the absence of GST-Lck-SH2 were also performed at the same concentrations. The following Kdx values were obtained: peptide 4 (127±6 μM), peptide 5 (43±10 μM), and peptide 6 (2.6±0.2).
# and [St]=total [A], Fx=fluorescence at a given concentration of peptide X (i.e. 4, 5, or 6), Fmax=fluorescence in the absence of peptide X, F0=fluorescence in the absence of Lck-SH2 domain, Kd=binding constant of A/Lck-SH2 domain, [Pt]=total [Lck-SH2], [P]=uncomplexed [Lck-SH2], [Xt]=total [4, 5, or 6], [PX]=[4, 5, or 6/Lck-SH2 complex], [SP]=[A/Lck-SH2 complex], Kdx=dissociation constant of peptide 4, 5, or 6/Lck-SH2 domain complex.
# [10] = 10 nM α-chymotrypsin, Tris pH 8.0, 30° C.
# T1 sequence (P06239 127-224 limits assumed): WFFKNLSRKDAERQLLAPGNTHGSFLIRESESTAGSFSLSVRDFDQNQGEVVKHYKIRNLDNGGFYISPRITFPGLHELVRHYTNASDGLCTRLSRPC
# Sequence of GST-Lck-SH2 (P06239 127-224 limits assumed): as above
compound,measurement,setting,value
α-chymotrypsin,"hydrolysis by chymotrypsin, continuous fluorescence assay",[1],the caged derivative 10 is essentially inactive as a chymotrypsin substrate
same,Km,[2],Km=6.3±1.3 µM
same,Vmax,[2],Vmax=7.2µmol/min-mg
"CC[C@H](C)[C@H](NC(=O)[C@H](CCC(=O)O)NC(=O)CNC(=O)[C@H](Cc1ccc(OP(=O)(O)O)cc1)NC(C)=O)C(=O)N[C@@H](CCNS(=O)(=O)c1ccc(-c2ncc(-c3ccc(N(C)C)cc3)o2)cc1)C(=O)N[C@@H](C)C(N)=O [peptide A, Ac-pTyr-Gly-Glu-Ile-Dab(Dapoxyl)-Ala-NH2] (Ac-[pY]GEI[Dab](X1)A-NH2)",enhancement in fluorescence intensity relative to A in the absence of Lck-SH2 domain,"Lck SH2 domain [3]; t=0 min photolysis, 3 μM A, 5 μM GST-Lck-SH2, 32 μM peptide 4",4 fold
H2N-Leu-Arg-Arg-Ala-N(DMNB)Ser-Leu-Gly-NH2 [peptide 12],activity as PKA substrate (phosphorylation),[4]; in the absence of photolysis,fails to serve as a substrate; also recorded: not phosphorylated
same,activity as PKA substrate after photolysis,[4]; photolysis 5-30 min,generates the active substrate 11
Ac-Gly-Gly-Gly-N(DMNB)Phe-coumarin [peptide 10],activity as chymotrypsin substrate after photolysis,"α-chymotrypsin; photolysis 5, 10, 15, 20 min",increasing photolysis times converts increasing amounts of caged analogue 10 to the active substrate 9
same,activity as chymotrypsin substrate,"α-chymotrypsin; without photolysis, 25 μM caged peptide",essentially inactive; also recorded: not hydrolyzed
PKA catalytic subunit,"PKA-catalyzed phosphorylation, [γ-33P]ATP assay",[5],"In the absence of photolysis, peptide 12 fails to serve as a substrate"
same,"PKA-catalyzed phosphorylation, [γ-33P]ATP assay",[6],"photolysis of 12 generates the active substrate 11 (as demonstrated by mass spectrometry) that, upon addition of PKA, furnishes the phosphorylated product"
Ac-pTyr-Gly-Glu-Ile-Dab(Dapoxyl)-Ala-NH2 (A) (peptide),fold increase in fluorescence upon binding,GST-Lck-SH2 [7],10 fold
same,fold enhancement in fluorescence intensity relative to A in the absence of Lck-SH2 domain,GST-Lck-SH2 [8],4 fold
Ac-Gly-Gly-Gly-Phe-coumarin (Ac-GGGF-coumarin; reading uncertain; also: printed as Ac-Gly-Gly-Gly-Phe-coumarin) [peptide 9],Km,α-chymotrypsin; [10],6.3 ± 1.3 µM
same,Vmax,α-chymotrypsin; [10],7.2 µmol/min/mg
same,enhancement in fluorescence upon complete hydrolysis,"α-chymotrypsin; λex=380 nm, λem=460 nm",~6 fold
"CC[C@H](C)[C@H](NC(=O)[C@H](CCC(=O)O)NC(=O)CN(Cc1cc(OC)c(OC)cc1[N+](=O)[O-])C(=O)[C@H](Cc1ccc(OP(=O)(O)O)cc1)NC(C)=O)C(=O)N[C@@H](CCNC(C)=O)C(=O)N[C@@H](C)C(N)=O [peptide 4, Ac-pTyr-N(DMNB)Gly-Glu-Ile-Dab(Ac)-Ala-NH2] (Ac-[pY][Gly(N-Dmnb)]EI[Dab](Ac)A-NH2)",Kd,Lck SH2 domain [9],127 ± 6 µM
same,effect of photolysis of the caged peptide in the competition assay,"Lck SH2 domain [3]; irradiation 0-30 min, 300-400 nm band pass, 32 μM peptide 4",complete displacement of A from the Lck SH2 domain
"CC[C@H](C)[C@H](NC(=O)[C@H](CCC(=O)O)NC(=O)CNC(=O)[C@H](Cc1ccc(OP(=O)(O)O)cc1)N(Cc1cc(OC)c(OC)cc1[N+](=O)[O-])C(C)=O)C(=O)N[C@@H](CCNC(C)=O)C(=O)N[C@@H](C)C(N)=O [peptide 5, Ac-N(DMNB)pTyr-Gly-Glu-Ile-Dab(Ac)-Ala-NH2] (Ac-[X2]GEI[Dab](Ac)A-NH2)",Kd,Lck SH2 domain [9],43 ± 10 µM
"CC[C@H](C)[C@H](NC(=O)[C@H](CCC(=O)O)NC(=O)CNC(=O)[C@H](Cc1ccc(OP(=O)(O)O)cc1)NC(C)=O)C(=O)N[C@@H](CCNC(C)=O)C(=O)N[C@@H](C)C(N)=O [peptide 6, Ac-pTyr-Gly-Glu-Ile-Dab(Ac)-Ala-NH2] (Ac-[pY]GEI[Dab](Ac)A-NH2)",Kd,Lck SH2 domain [9],2.6 ± 0.2 µM
